Earlier results, collected in paper PMC7072864.

Molecular target: EAG1 CNBHD CNBHD (Mus musculus) (UniProt Q60603)

## EAG1 PAS domain PAS (from UniProt Q60603)
  Kd: 13 µM
